{
  "source": "paper PMC3107735",
  "key": {"[1]": {"biological_target": "human thrombin (human, UniProt P00734;P00734 328-363;364-622)", "test": "ITC"}, "[2]": {"biological_target": "alpha-thrombin (bovine, UniProt P00735;P00735 318-366;367-625)", "test": "ITC"}},
  "data": [
    {"binder": "GGTTGGTGTGGTTGG (structured_DNA)", "note": "[thrombin-binding DNA aptamer (15-mer, Bock et al.)]", "values": [
      {"measurement": "binding result", "setting": "[1]", "result": "binds"},
      {"measurement": "Kd", "setting": "[2]", "result": 111, "unit": "nM"}
    ]}
  ]
}
